Results taken from US20240352438A1, “MEANS AND METHODS FOR DETOXIFYING OCHRATOXIN A” (DSM Austria GmbH, priority 2021, published 2024).
Where a chain is given by its changes, count along the chain named.

B1: 238 (protein)
chain: MTTRTRILTAFLSLLAANACAADAAPAAPHTVVLRAARMFDGASGKLVDHPQLTIVGNKIVRIAQGDKAEVPAGAEVVDLGDATLLPGFIDAHVHLSGQSSDNWYGDFFDNMMRFPAEQALYGAYYARITLEAGFTSVRDVGSTDWVALGLRNAIDAGKVPGPRMLVSNYAVGSTGGHADQDPIPPHKLPLAGPLQGVCNGPEECRAAVRYQIKYGANVIKFMPSGGVLSLSDPVDAPELSQDEMNAVIGESHAWGRKVAAHAHGDKAAKMAVAAGVDSIEHGTFIEDDTLRAMKAKNVYLVPTISAIAHVEEKIGTFPPVIAEKGRAAAAHLRQTFRHAVQIGVPIALGTDAGVGAHGSNAREFRYMVENGLTPAQALLAGTANAARLLGTFDRVGTLEAGKLADVVAVPGNPIADITVTERPLFVMKDGVVVRRDAVR
modifications: exemplary polypeptide
B2: 274 (protein)
chain: B1 chain with Q119K, T284S
modifications: exemplary polypeptide
B3: 272 (protein)
chain: B1 chain with Q119E, T284S
modifications: exemplary polypeptide
B4: 275 (protein)
chain: B1 chain with Q119M, T284S
modifications: exemplary polypeptide
B5: 242 (protein)
chain: B1 chain with T284S, H332R
modifications: exemplary polypeptide
B6: 239 (protein)
chain: B1 chain with T284S, H310D
modifications: exemplary polypeptide
B7: 282 (protein)
chain: B1 chain with V235A, T284S
modifications: exemplary polypeptide
B8: 260 (protein)
chain: B1 chain with T284S, H310E, E313A
modifications: exemplary polypeptide
B9: 244 (protein)
chain: B1 chain with T284S, H339E
modifications: exemplary polypeptide
B10: 268 (protein)
chain: B1 chain with M112F, T284S
modifications: exemplary polypeptide
B11: 273 (protein)
chain: B1 chain with Q119H, T284S
modifications: exemplary polypeptide
B12: 241 (protein)
chain: B1 chain with T284S, H332E
modifications: exemplary polypeptide
B13: 280 (protein)
chain: B1 chain with V198T, T284S
modifications: exemplary polypeptide
B14: 246 (protein)
chain: B1 chain with T284S, H339N
modifications: exemplary polypeptide
B15: 261 (protein)
chain: B1 chain with G98S, T284S
modifications: exemplary polypeptide
B16: 259 (protein)
chain: B1 chain with T284S, H310D, E313A
modifications: exemplary polypeptide
B17: 247 (protein)
chain: B1 chain with T284S, H339S
modifications: exemplary polypeptide
B18: 248 (protein)
chain: B1 chain with T284S, A353S
modifications: exemplary polypeptide
B19: 281 (protein)
chain: B1 chain with L231F, T284S
modifications: exemplary polypeptide
B20: 243 (protein)
chain: B1 chain with T284S, H332S
modifications: exemplary polypeptide
B21: 256 (protein)
chain: B1 chain with H187N, K188R, T284S
modifications: exemplary polypeptide
B22: 253 (protein)
chain: B1 chain with T284S, N361Q
modifications: exemplary polypeptide
B23: 245 (protein)
chain: B1 chain with T284S, H339K
modifications: exemplary polypeptide
B24: 240 (protein)
chain: B1 chain with T284S, H310E
modifications: exemplary polypeptide
B25: 262 (protein)
chain: B1 chain with G98V, T284S
modifications: exemplary polypeptide

Assay: OTA detoxification activity assay (specific activity, fluorescence reduction ex/em 390/450 nm)
Type: biochemical
Settings: pH 6.0; SEQ ID NO: 1 = 100%
In short: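 Recombinant enzyme preparation with 200 ng/mL OTA in 100 mM sodium phosphate, at pH 6.0 and pH 7.5, 37° C. Degradation followed as the fall in fluorescence at ex/em 390/450 nm. Specific activity taken from the initial linear slope; one unit degrades 1 μmol OTA per min at a starting OTA of […].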

Point of comparison: B14, “Specific OTA detoxification activities in % compared to the enzyme of SEQ ID NO: 1, pH 6.0” value 113%. Against it:
- B1 — higher, 151%
- B2 — lower, 100%
- B3 — higher, 121%
- B4 — lower, 71%
- B5 — lower, 41%
- B6 — lower, 73%
- B7 — lower, 77%
- B8 — lower, 83%
- B9 — higher, 127%
- B10 — lower, 25%
- B11 — higher, 134%
- B12 — lower, 18%
- B13 — lower, 70%
- B15 — lower, 78%
- B16 — lower, 56%
- B17 — lower, 80%
- B18 — higher, 131%
- B19 — lower, 90%
- B20 — lower, 37%
- B21 — higher, 116%
- B22 — lower, 93%
- B23 — lower, 62%
- B24 — lower, 86%
- B25 — higher, 116%

Same assay, conditions: pH 7.5; SEQ ID NO: 1 = 100%

Point of comparison: B24, “Specific OTA detoxification activities in % compared to the enzyme of SEQ ID NO: 1, pH 7.5” value 101%. Against it:
- B1 — lower, 97%
- B2 — lower, 100%
- B3 — lower, 86%
- B4 — lower, 85%
- B5 — lower, 54%
- B6 — lower, 76%
- B7 — lower, 41%
- B8 — lower, 81%
- B9 — lower, 93%
- B10 — lower, 39%
- B11 — lower, 76%
- B12 — lower, 55%
- B13 — lower, 50%
- B14 — lower, 89%
- B15 — lower, 95%
- B16 — lower, 54%
- B17 — lower, 100%
- B18 — lower, 91%
- B19 — lower, 50%
- B20 — lower, 77%
- B21 — the same, 101%
- B22 — lower, 87%
- B23 — lower, 59%
- B25 — higher, 106%

Assay: Enzymatic activity comparison: activity remaining after 65° C. for 10 min at pH 6.0, relative to SEQ ID NO: 1
Type: physicochemical
Settings: not given
Description: To compare the temperature behavior and thermostability of selected enzymes to one another, enzyme was incubated at 65° C. for 10 min at pH 6.0. The enzymatic activity remaining after incubation was compared to the remaining activity of the enzyme of SEQ ID NO: 1 after incubation, the latter being set to 100%, see Table 16.

Point of comparison: B3, “Enzymatic activity remaining after incubation, compared to SEQ ID NO: 1 (set to 100%)” value 41%. Against it:
- B1 — lower, 24%
- B2 — lower, 32%
- B4 — lower, 25%
- B5 — lower, 11%
- B6 — lower, 30%
- B7 — lower, 28%
- B8 — lower, 27%
- B9 — lower, 33%
- B10 — lower, 28%
- B11 — lower, 34%
- B12 — higher, 73%
- B13 — lower, 31%
- B14 — lower, 27%
- B15 — higher, 60%
- B16 — the same, 41%
- B17 — higher, 53%
- B18 — lower, 38%
- B19 — lower, 13%
- B20 — the same, 41%
- B21 — lower, 36%
- B22 — lower, 22%
- B23 — lower, 37%
- B24 — higher, 44%
- B25 — lower, 40%
